“Also recorded” adds a separate entry of the source. Peptide text beside a SMILES is read from it. * marks the point of attachment. Cbz = O=C(OCc1ccccc1)*

The target of test [1] is T1, 3HA-PYL8 (Arabidopsis thaliana, UniProt Q9FGM1).
T1 construct: expressed in transfected cells; host or cells: stably transformed Arabidopsis thaliana (Col-0) plants, line oe3HA-PYL8: seedlings or imbibed seeds; seed lines in pyl8-1 background, some crossed with oeDDA1-GFP
T1 sequence (Q9FGM1 1-188): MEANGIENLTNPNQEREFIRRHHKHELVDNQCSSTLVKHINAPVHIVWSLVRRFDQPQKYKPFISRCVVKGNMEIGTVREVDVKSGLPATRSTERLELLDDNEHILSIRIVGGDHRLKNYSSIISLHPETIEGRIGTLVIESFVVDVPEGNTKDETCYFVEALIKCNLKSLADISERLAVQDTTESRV
The test can be described thus: In vivo protein degradation assay (cycloheximide time course, immunoblot). To be noted: 8-d-old seedlings treated with cycloheximide, 50 μM MG132; oe3HA-PYL8 and oe3HA-PYL8/oeDDA1-GFP. The protocol: (§1) For protein extraction from seedlings, proteins were extracted in buffer containing 50 mM Tris-HCl pH 7.4, 150 mM NaCl, 10mM MgCl2, 1 mM PMSF, 0.1%NP-40 and 1× complete protease inhibitor (Roche). After centrifugation at 16,000 g at 4° C., the supernatants were collected. This step was repeated twice. For protein extraction from seeds, seeds were frozen in liquid N2 and then homogenized in buffer containing 7 M urea, 2 M thiourea, 4% 3-[(3-cholamidopropyl)dimethylammonio]-1-propanesulfonate (CHAPS; w/v), 18 mM Tris-HCl pH 7.5, 0,2% Triton X100, 1× complete protease inhibitor (Roche). After 10 min incubation at 4° C. with rotation. DTT was added to protein extracts (14 mM final concentration), prior to 20 min incubation at 4° C. Extracts were clarified by centrifugation as afore-mentioned. Protein concentration in final supernatants was determined using a Bio-Rad Protein Assay kit. For in vivo co-immunoprecipitation assays, normalized seedling protein extracts were incubated with 5 μl anti-GFP antibody (Living colors Full length A.V. Polyclonal Antibody, Clontech) for 1 h at 4° C. with rotation. 10 μl of protein A-coupled beads (prewashed twice with 0.1 M Glycine pH 2.7) were added to the samples and incubated for an additional hour at 4° C. with rotation. […]
A general note: Immunoblotting shows a protein as a band on a membrane.

The subject of test [2] is 3HA-PYL8. The test can be described thus: MG132 treatment of oe3HA-PYL8 seedlings, anti-HA immunoblot. In kind it is in vivo, Arabidopsis. The settings on record: 9-d-old oe3HA-PYL8 seedlings, 50 μM MG132, 2 h, vs mock. As for the experimental part: To determine whether PYL8 is a substrate of the UPS, we treated Arabidopsis seedlings expressing a 3×HA-tagged PYL8 fusion (oe3HA-PYL8) with proteasome inhibitor MG132. […] Moreover, upon proteasome inhibition several bands of high MW were detected, likely corresponding to ubiquitinated 3HA-PYL8 forms.
as §1, with “kit.” for “kit. For in vivo co-immunoprecipitation assays, normalized seedling protein extracts were incubated with 5 μl anti-GFP antibody (Living colors Full length A.V. Polyclonal Antibody, Clontech) for 1 h at 4° C. with rotation. 10 μl of protein A-coupled beads (prewashed twice with 0.1 M Glycine pH 2.7) were added to the samples and incubated for an additional hour at 4° C. with rotation.”

The target in test [3] is T2, DDB1a (Arabidopsis, UniProt Q9M0V3 1-1088).
T2 construct: Endogenous protein in the TAP from Arabidopsis cell cultures; also called DDB1 proteins
T2 sequence (looked up): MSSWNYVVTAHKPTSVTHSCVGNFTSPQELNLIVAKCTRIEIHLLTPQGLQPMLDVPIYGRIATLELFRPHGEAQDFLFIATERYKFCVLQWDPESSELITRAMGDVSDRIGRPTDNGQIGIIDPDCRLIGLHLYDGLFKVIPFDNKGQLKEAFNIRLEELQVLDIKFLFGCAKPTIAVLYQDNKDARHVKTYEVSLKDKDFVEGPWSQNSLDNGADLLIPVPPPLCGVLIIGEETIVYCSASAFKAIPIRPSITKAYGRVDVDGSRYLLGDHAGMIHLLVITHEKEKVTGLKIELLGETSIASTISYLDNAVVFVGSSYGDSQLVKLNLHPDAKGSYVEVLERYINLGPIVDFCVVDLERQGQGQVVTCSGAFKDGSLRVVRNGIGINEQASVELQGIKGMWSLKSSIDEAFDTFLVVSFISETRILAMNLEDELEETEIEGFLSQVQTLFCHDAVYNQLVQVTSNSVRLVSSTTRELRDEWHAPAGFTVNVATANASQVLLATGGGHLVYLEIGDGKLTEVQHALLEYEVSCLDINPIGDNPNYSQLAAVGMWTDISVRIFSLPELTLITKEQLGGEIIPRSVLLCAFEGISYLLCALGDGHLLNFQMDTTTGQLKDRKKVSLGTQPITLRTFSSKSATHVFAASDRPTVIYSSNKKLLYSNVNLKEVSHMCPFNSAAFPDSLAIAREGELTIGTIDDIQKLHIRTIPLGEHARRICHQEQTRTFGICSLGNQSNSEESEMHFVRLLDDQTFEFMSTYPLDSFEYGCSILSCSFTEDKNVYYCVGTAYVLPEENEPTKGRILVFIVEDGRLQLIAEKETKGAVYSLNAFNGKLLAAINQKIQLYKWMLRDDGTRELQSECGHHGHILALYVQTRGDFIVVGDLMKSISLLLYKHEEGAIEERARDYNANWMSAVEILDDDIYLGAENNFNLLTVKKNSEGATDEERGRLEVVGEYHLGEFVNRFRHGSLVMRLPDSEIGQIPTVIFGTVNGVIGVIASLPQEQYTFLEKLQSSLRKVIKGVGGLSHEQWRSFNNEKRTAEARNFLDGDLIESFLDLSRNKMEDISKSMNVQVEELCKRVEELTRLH
The test can be described thus: yeast two-hybrid (FIG. 4B). As for the experimental part: (§2) (A) Y187 yeast cells transformed with pGBKT7-DDA1 were used to screen a cDNA library prepared from Arabidopsis seedlings in the pGADT7 vector and transformed into AH109 cells. Positive clones included truncated versions of ABA receptors PYL4 and PYL9. Yeast clones were grown in selective media containing different concentrations of 3AT (ranging 0.5 to 5 […]). Empty pGADT7 vector was used as negative control. (B-C) DDA1 interaction with full length PYL8 (B), PYL4, PYL5, PYL6 or PYL9 (C) was assessed using yeast two hybrid experiments as in (A). Physical association between PYL8 and other components of the CDD complex (DDB1a, DDB1b, DET1 and COP10) was also tested (B).
(§3) The full length DDA1 cDNA was cloned into the pGBKT7 (Gal4 DNA binding domain, BD; Clontech). […] To confirm protein interactions, plasmids were co-transformed into Saccharomyces cerevisiae AH109 cells, following standard heat-shock protocols (Chini et al., 2007). Successfully transformed colonies were identified on yeast synthetic drop-out lacking Leu and Trp; these colonies were resuspended in water and transferred to selective media lacking Ade, His, Leu and Trp. Plates without His were supplemented with different concentrations of 3-amino 1,2,4-triazole (3AT; ranging 0.5-10 mM). Yeast cells were incubated at 30° C. during 6 days. Empty vectors were co-transformed as negative controls. To test the DDA1 interaction with specific DDB1a domains, DDB1a truncated versions were generated and cloned into the pGADT7 vector as follows: BPA (aa 16-350), BPB (aa 387-704), BPA+BPB (aa 16-704), BPC (aa 704-1002) and BPB+BPC (aa 350-1002). Full length DDB1a was used as a positive control.

Test [4] has as its target T3, DDB1b (Arabidopsis, UniProt O49552 1-1088).
T3 construct: Endogenous protein in the TAP; also called DDB1 proteins
T3 sequence (looked up): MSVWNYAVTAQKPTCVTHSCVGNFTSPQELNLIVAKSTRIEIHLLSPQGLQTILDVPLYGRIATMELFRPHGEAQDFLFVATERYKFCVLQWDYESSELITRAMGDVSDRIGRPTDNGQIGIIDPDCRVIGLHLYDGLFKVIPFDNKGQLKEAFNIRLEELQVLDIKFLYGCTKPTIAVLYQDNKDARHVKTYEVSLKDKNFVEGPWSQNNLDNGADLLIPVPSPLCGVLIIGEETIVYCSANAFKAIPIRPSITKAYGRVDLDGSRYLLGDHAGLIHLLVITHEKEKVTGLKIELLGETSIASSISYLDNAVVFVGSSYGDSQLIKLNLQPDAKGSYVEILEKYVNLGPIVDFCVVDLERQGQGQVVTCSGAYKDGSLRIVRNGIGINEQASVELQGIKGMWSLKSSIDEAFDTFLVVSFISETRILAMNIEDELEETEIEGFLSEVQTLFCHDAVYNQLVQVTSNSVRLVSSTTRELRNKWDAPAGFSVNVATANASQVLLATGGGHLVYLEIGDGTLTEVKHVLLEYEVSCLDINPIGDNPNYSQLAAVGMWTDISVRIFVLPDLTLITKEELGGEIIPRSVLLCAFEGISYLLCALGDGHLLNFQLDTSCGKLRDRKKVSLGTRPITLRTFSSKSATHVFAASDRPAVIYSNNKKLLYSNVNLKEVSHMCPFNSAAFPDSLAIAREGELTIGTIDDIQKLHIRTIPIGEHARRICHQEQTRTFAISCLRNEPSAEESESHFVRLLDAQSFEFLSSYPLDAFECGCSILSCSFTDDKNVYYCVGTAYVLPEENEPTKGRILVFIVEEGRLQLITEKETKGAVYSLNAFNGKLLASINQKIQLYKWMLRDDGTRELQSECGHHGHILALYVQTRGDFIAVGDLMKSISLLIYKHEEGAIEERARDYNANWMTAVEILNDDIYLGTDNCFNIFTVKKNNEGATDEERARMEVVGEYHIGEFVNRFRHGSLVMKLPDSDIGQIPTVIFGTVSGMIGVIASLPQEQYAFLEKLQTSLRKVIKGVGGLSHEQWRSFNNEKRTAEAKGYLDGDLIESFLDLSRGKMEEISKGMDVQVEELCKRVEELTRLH
The test can be described thus: yeast two-hybrid (FIG. 4B). The protocol:
as §2, §3

The target of test [5] is T4, DET1 (Arabidopsis, UniProt P48732 1-543).
T4 construct: Endogenous protein in the TAP; also called DEETIOLATED 1
T4 sequence (looked up): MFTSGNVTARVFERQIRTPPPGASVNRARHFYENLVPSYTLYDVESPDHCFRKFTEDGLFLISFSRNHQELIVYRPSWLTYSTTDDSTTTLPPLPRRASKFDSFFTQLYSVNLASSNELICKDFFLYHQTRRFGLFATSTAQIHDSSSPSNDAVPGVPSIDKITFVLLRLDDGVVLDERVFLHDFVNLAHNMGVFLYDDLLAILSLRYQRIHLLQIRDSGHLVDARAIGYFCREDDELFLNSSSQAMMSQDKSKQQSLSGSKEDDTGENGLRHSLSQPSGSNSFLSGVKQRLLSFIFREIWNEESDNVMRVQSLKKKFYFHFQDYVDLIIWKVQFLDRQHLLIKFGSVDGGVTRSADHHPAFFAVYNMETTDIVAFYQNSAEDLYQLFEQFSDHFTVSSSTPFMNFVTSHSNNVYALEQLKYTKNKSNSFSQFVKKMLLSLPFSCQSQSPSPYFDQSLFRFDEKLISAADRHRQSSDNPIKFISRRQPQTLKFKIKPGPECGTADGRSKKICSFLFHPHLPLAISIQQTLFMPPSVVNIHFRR
The test can be described thus: yeast two-hybrid (FIG. 4B). As for the experimental part:
as §2, §3

In the case of `CC(C)C[C@@H](C=O)NC(=O)[C@H](CC(C)C)NC(=O)[C@H](CC(C)C)NC(=O)OCc1ccccc1` [MG132] (Cbz-Leu-Leu-Leu-aldehyde), the 3HA-PYL8 destabilization/accumulation result in test [1] is recorded as “attenuated 3HA-PYL8 destabilization; also recorded: increased accumulation of 3HA-PYL8”. In addition, the 3HA-PYL8 protein accumulation entry in test [2] is “increased 3HA-PYL8 protein accumulation; also recorded: stabilizes 3HA-PYL8”.

B1: full length PYL8 (receptor, Arabidopsis, UniProt Q9FGM1 1-188, looked up)
chain: MEANGIENLTNPNQEREFIRRHHKHELVDNQCSSTLVKHINAPVHIVWSLVRRFDQPQKYKPFISRCVVKGNMEIGTVREVDVKSGLPATRSTERLELLDDNEHILSIRIVGGDHRLKNYSSIISLHPETIEGRIGTLVIESFVVDVPEGNTKDETCYFVEALIKCNLKSLADISERLAVQDTTESRV
notes: Gal4-domain fusion in the yeast two-hybrid assays; also called ABA receptor PYL8
Regarding B1, the binding result in test [3], in test [4] and in test [5] was “no binding” throughout.

Source of the values: US20160102316A1, “STRESS TOLERANT PLANTS” (CONSEJO SUPERIOR DE INVESTIGACIONES CIENTIFICAS(CSIC), priority 2013, published 2016).
